Test results reported in patent US20190255154.

Target: T1, acyl ghrelin (active hormone) in mouse blood, Q9EQX0
T1 chain: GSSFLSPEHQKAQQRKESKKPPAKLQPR

B1: native mouse BChE (wild-type mouse butyrylcholinesterase), expressed in mice from an AAV-8 vector (protein)
chain: EEDFIITTKTGRVRGLSMPVLGGTVTAFLGIPYAQPPLGSLRFKKPQPLNKWPDIHNATQYANSCYQNIDQAFPGFQGSEMWNPNTNLSEDCLYLNVWIPVPKPKNATVMVWIYGGGFQTGTSSLPVYDGKFLARVERVIVVSMNYRVGALGFLAFPGNPDAPGNMGLFDQQLALQWVQRNIAAFGGNPKSITIFGESAGAASVSLHLLCPQSYPLFTRAILESGSSNAPWAVKHPEEARNRTLTLAKFTGCSKENEMEMIKCLRSKDPQEILRNERFVLPSDSILSINFGPTVDGDFLTDMPHTLLQLGKVKKAQILVGVNKDEGTAFLVYGAPGFSKDNDSLITRKEFQEGLNMYFPGVSRLGKEAVLFYYVDWLGEQSPEVYRDALDDVIGDYNIICPALEFTKKFAELENNAFFYFFEHRSSKLPWPEWMGVMHGYEIEFVFGLPLGRRVNYTRAEEIFSRSIMKTWANFAKYGHPNGTQGNSTMWPVFTSTEQKYLTLNTEKSKIYSKLRAPQCQFWRLFFPKVLEMTGDIDETEQEWKAGFHRWSNYMMDWQNQFNDYTSKKESCTAL
With B1 the “ratio of desacyl ghrelin (inactive peptide) over the active hormone in mouse blood, ghrelin ELISA, after AAV-BChE gene transfer (HCT116 colon cancer model)” value was 2-fold rise and the “ratio of desacyl ghrelin (inactive peptide) over the active hormone in mouse blood, ghrelin ELISA, after AAV-BChE gene transfer (triple negative PDX model)” value was 2-fold rise.
